Measured values: IntAct's records for PubMed 31515488

B1: Notch homolog 2 N-terminal-like protein A (Homo sapiens), Q7Z3S9 (parent)
chain: MCVTYHNGTGYCKCPEGFLGEYCQHRDPCEKNRCQNGGTCVAQAMLGKATCRCASGFTGEDCQYSTSHPCFVSRPCLNGGTCHMLSRDTYECTCQVGFTGKECQWTDACLSHPCANGSTCTTVANQFSCKCLTGFTGQKCETDVNECDIPGHCQHGGTCLNLPGSYQCQCLQGFTGQYCDSLYVPCAPSPCVNGGTCRQTGDFTFECNCLPETVRRGTELWERDREVWNGKEHDEN
partner: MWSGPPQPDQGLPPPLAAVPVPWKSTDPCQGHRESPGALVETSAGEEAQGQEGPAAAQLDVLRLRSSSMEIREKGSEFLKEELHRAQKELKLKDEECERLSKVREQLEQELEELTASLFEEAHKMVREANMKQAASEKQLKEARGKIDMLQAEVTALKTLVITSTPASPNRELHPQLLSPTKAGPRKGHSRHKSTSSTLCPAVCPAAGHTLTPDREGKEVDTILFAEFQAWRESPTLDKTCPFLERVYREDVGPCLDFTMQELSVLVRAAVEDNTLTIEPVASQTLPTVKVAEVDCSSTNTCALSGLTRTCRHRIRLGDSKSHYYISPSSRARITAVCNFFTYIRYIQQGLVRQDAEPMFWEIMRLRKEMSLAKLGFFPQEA
B2: MIF4G domain-containing protein (Homo sapiens), A9UHW6 (parent)
chain: MGEPSREEYKIQSFDAETQQLLKTALKDPGAVDLEKVANVIVDHSLQDCVFSKEAGRMCYAIIQAESKQAGQSVFRRGLLNRLQQEYQAREQLRARSLQGWVCYVTFICNIFDYLRVNNMPMMALVNPVYDCLFRLAQPDSLSKEEEVDCLVLQLHRVGEQLEKMNGQRMDELFVLIRDGFLLPTGLSSLAQLLLLEIIEFRAAGWKTTPAAHKYYYSEVSD
partner: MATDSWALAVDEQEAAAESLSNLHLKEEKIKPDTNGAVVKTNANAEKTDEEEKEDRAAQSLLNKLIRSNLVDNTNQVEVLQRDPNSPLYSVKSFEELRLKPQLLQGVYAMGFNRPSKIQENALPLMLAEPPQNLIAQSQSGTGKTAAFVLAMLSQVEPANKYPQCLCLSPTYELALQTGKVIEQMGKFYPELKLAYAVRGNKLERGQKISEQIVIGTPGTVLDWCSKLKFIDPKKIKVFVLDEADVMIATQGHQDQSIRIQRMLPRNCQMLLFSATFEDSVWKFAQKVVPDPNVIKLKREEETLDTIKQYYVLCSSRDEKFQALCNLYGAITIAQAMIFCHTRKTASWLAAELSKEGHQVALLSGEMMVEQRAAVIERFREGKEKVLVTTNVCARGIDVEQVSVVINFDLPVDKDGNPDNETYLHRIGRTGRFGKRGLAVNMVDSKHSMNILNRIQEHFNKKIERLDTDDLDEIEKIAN
B3: RUN and FYVE domain-containing protein 1 (Homo sapiens), Q96T51-2 (parent)
chain: MMEERANLMHMMKLSIKVLLQSALSLGRSLDADHAPLQQFFVVMEHCLKHGLKVKKSFIGQNKSFFGPLELVEKLCPEASDIATSVRNLPELKTAVGRGRAWLYLALMQKKLADYLKVLIDNKHLLSEFYEPEALMMEEEGMVIVGLLVGLNVLDANLCLKGEDLDSQVGVIDFSLYLKDVQDLDGGKEHERITDVLDQKNYVEELNRHLSCTVGDLQTKIDGLEKTNSKLQEELSAATDRICSLQEEQQQLREQNELIRERSEKSVEITKQDTKVELETYKQTRQGLDEMYSDVWKQLKEEKKVRLELEKELELQIGMKTEMEIAMKLLEKDTHEKQDTLVALRQQLEEVKAINLQMFHKAQNAESSLQQKNEAITSFEGKTNQVMSSMKQMEERLQHSERARQGAEERSHKLQQELGGRIGALQLQLSQLHEQCSSLEKELKSEKEQRQALQRELQHEKDTSSLLRMELQQVEGLKKELRELQDEKAELQKICEEQEQALQEMGLHLSQSKLKMEDIKEVNQALKGHAWLKDDEATHCRQCEKEFSISRRKHHCRNCGHIFCNTCSSNELALPSYPKPVRVCDSCHTLLLQRCSSTAS
partner: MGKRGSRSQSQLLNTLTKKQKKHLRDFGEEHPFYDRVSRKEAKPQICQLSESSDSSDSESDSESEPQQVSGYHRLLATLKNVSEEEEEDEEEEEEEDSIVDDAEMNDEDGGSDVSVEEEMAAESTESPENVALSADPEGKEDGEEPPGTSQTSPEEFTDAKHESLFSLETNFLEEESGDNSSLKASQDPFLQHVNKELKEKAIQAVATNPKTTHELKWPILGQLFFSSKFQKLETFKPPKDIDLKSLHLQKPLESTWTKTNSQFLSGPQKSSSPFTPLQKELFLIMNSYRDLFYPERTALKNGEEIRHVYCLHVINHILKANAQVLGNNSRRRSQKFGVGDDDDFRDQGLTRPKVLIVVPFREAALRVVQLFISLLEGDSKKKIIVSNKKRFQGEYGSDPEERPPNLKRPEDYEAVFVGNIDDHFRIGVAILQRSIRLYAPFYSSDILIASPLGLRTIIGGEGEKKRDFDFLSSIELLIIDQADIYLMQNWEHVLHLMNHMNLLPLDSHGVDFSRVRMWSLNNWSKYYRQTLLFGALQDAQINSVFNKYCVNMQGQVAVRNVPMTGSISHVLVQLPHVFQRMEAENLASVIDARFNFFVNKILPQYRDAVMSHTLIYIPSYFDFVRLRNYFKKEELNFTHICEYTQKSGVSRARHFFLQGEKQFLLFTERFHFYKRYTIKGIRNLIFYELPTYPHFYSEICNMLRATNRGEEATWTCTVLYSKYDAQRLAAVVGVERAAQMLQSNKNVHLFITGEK
B4: Coiled-coil domain-containing protein 33 (Homo sapiens), Q8N5R6-5 (parent)
chain: MGEPGPPSPPAPKAAPGLIDSFSEMNNYRRAMQKMAEDILSLRRQASILEGENRILRSRLAQQEEEEGQGKASEAQNTVSMKQKLLLSELDMKKLRDRVQHLQNELIRKNDREKELLLLYQAQQPQAALLKQYQGKLQKMKALEETVRHQEKVIEKMERVLEDRLQDRSKPPPLNRQQGKPYTGFPMLSASGLPLGSMGENLPVELYSVLLAENAKLRTELDKNRHQQAPIILQQQALPVDPGELGAGGDLTERLQETHGPGHSECTETLPAQDLLSGTSDKFNLLAKLEHAQSRILSLESQLEDSARRWGREKQDLATRLQEQEKGFRHPSNSIIIEQPVSDPPGVAPRGSGGGAGSHRTPKVTGP
partner: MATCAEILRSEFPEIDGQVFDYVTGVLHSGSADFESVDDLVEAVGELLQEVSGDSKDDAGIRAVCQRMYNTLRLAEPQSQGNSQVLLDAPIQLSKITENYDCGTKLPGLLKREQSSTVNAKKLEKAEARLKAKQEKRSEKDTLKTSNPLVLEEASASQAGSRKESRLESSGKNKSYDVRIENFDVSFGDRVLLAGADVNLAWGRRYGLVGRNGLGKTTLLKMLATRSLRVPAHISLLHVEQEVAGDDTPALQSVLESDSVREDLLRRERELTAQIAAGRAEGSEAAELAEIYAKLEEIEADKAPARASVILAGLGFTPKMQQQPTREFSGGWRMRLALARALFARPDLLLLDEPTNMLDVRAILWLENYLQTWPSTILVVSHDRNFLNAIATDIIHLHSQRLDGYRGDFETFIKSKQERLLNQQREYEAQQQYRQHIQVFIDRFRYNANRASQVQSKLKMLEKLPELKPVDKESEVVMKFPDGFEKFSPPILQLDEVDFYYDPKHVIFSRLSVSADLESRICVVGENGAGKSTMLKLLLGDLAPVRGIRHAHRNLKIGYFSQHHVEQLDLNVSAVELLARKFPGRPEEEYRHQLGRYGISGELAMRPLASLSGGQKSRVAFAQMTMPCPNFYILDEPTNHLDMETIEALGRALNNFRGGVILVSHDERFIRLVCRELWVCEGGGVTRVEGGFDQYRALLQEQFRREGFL
B5: Cdc42 effector protein 4 (Homo sapiens), Q9H3Q1 (parent)
chain: MPILKQLVSSSVHSKRRSRADLTAEMISAPLGDFRHTMHVGRAGDAFGDTSFLNSKAGEPDGESLDEQPSSSSSKRSLLSRKFRGSKRSQSVTRGEREQRDMLGSLRDSALFVKNAMSLPQLNEKEAAEKGTSKLPKSLSSSPVKKANDGEGGDEEAGTEEAVPRRNGAAGPHSPDPLLDEQAFGDLTDLPVVPKATYGLKHAESIMSFHIDLGPSMLGDVLSIMDKEEWDPEEGEGGYHGDEGAAGTITQAPPYAVAAPPLARQEGKAGPDLPSLPSHALEDEGWAAAAPSPGSARSMGSHTTRDSSSLSSCTSGILEERSPAFRGPDRARAAVSRQPDKEFSFMDEEEEDEIRV
B6: Placental protein 13-like (Homo sapiens), Q8TCE9 (parent)
chain: MSSLPVPYTLPVSLPVGSCVIITGTPILTFVKDPQLEVNFYTGMDEDSDIAFQFRLHFGHPAIMNSCVFGIWRYEEKCYYLPFEDGKPFELCIYVRHKEYKVMVNGQRIYNFAHRFPPASVKMLQVFRDISLTRVLISD
partner: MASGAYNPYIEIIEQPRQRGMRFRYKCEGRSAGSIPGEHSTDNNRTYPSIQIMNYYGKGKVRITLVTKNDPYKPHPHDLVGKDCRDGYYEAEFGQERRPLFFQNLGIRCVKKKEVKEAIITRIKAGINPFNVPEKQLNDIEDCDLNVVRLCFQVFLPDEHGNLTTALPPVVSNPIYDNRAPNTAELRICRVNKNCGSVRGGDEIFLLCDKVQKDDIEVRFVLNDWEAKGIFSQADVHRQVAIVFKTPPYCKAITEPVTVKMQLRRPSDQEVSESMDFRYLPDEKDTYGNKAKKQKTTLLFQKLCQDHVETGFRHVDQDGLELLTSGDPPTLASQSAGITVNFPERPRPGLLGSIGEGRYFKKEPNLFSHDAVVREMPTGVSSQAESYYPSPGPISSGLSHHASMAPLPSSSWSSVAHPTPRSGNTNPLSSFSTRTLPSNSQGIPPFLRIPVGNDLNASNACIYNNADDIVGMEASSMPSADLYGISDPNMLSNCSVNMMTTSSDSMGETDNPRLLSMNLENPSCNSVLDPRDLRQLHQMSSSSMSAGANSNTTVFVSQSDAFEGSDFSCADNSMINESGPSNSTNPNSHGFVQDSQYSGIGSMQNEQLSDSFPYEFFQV
B7: Four and a half LIM domains protein 2 (Homo sapiens), Q14192 (parent)
chain: MTERFDCHHCNESLFGKKYILREESPYCVVCFETLFANTCEECGKPIGCDCKDLSYKDRHWHEACFHCSQCRNSLVDKPFAAKEDQLLCTDCYSNEYSSKCQECKKTIMPGTRKMEYKGSSWHETCFICHRCQQPIGTKSFIPKDNQNFCVPCYEKQHAMQCVQCKKPITTGGVTYREQPWHKECFVCTACRKQLSGQRFTARDDFAYCLNCFCDLYAKKCAGCTNPISGLGGTKYISFEERQWHNDCFNCKKCSLSLVGRGFLTERDDILCPDCGKDI

Variants of: B1
Details: with RAB3IL1, Q8TBN0

Variant | effect of a mutation on the interaction
A115T | with no effect
R74Q | with no effect

Variants of: B2
Details: with dd19b_human DDX19B

Variant | effect of a mutation on the interaction
E160K | with no effect

Variants of: B3
Details: with utp25_human UTP25, Q68CQ4

Variant | effect of a mutation on the interaction
C159F | with no effect

Variants of: B4
Details: with abcf3_human ABCF3, Q9NUQ8

Variant | effect of a mutation on the interaction
R30L | with no effect
M25V | with no effect

Further lines, results first:

effect of a mutation on the interaction | Variant
with no effect | P203L
with no effect | G196R

Variants of: B5
Details: with fam9b_human FAM9B

Variant | effect of a mutation on the interaction
M102V | with no effect

Variants of: B6
Details: with rel_human REL

Variant | effect of a mutation on the interaction
M123T | with no effect

Variants of: B7
Details: with inca1_human INCA1, Q0VD86
inca1_human INCA1, Q0VD86, sequence (Q0VD86 whole entry): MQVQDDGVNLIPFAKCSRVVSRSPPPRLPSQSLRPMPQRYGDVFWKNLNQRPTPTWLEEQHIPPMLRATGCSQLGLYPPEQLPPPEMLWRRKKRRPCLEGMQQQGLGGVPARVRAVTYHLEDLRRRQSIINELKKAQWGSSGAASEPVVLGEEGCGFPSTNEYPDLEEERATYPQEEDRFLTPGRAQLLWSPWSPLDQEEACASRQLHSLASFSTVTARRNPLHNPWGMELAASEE

Variant | effect of a mutation on the interaction
A37S | with no effect
N95K | with no effect
